Reference: PMC4797280 (Nucleic Acids Research, 2016)
Substitutions are numbered along the chain they refer to. Like-named read-outs stand apart in the source and are kept apart here.

B1: Smt3 (Gal4AD-Smt3) (natural protein, S. cerevisiae, UniProt Q12306 1-101, looked up)
chain: MSDSEVNQEAKPEVKPEVKPETHINLKVSDGSSEIFFKIKKTTPLRRLMEAFAKRQGKEMDSLRFLYDGIRIQADQTPEDLDMEDNDIIEAHREQIGGATY
B2: Xrs2 (Gal4AD-Xrs2) (natural protein, S. cerevisiae, UniProt P33301 1-854, looked up)
chain: MWVVRYQNTLEDGSISFISCCLQAFKTYSIGRSSKNPLIIKNDKSISRQHITFKWEINNSSDLKHSSLCLVNKGKLTSLNKKFMKVGETFTINASDVLKSTIIELGTTPIRIEFEWINEVWNIPPHLTQFRTMLSEYGISTEISINDIPANLMISDYPKSEDNSIRELYALVSTIPMKKSRFLMELCNTLLPTSKTNLKFDEMWNDMISNPEYNVFDFDPNILLSKFMRLNNIRVLTTIKSEPRLSSLLRTFNINLFAFDNIDSLYKYVDSLEASTEYLILTTTDKKENGKILCTIKTMLTSIIDGTLSAVINMKGASSRTLDNGKFDQISEGMSTILKTSRAPEVEASPVVSKKRKLNRRRVLPLDSLDFFAGGLSTKTLSENRSLTDAKRLNCGAESKTVISSPNIAEADEKHAPFLQNALKPTEDIGKKSGHSSPGAIIVSSPNLGTVNTSEDSLDKSLQSHKLPQPSLPEVAGIGSQTISSNSADYETAAVNSMDDAEVTKNFRVNHHQNIEQPSKNIRKLSNYSREISSPLQENCKSPVKELSIKEKSGTPHAFVEAIQETKNREVKRVKSTIVELKDEELSEEAINQLKNLAIVEPSNNLLRKSFDSEGNKTSRTTEKWENSLMEPEWHKRKNFKTFVKVRPKSKAHKEEGKNNTQSSDFIRNAAFLITRNYVPLKKYSKKDTTTKWGTEENEDMFALTEMERFGSNTFMSDNINSNTIQKRSQALNRFTNEDSSNEGEEDSFSFSRCSGTAASVQPLKNKIFITDEDDLGDIDDKSDRLNHRENNRNLFVVKEMNLRPNLSEECSKQSRHSRSATSRSRGSFGASNNGDGDDDDDDGPKFTFKRRKG

Assays:
Assay in all cases: two-hybrid
[1] = target: S. cerevisiae Mre11 (LexA-Mre11) (S. cerevisiae) (UniProt P32829)
[2] = target: S. cerevisiae Mre11 (LexA-Mre11) (S. cerevisiae) (UniProt P32829); remark: listed apart in the source
[3] = target: T1, Mre11^P84S (LexA-Mre11^P84S) (S. cerevisiae, UniProt P32829 1-692, P84S)
T1 sequence (looked up): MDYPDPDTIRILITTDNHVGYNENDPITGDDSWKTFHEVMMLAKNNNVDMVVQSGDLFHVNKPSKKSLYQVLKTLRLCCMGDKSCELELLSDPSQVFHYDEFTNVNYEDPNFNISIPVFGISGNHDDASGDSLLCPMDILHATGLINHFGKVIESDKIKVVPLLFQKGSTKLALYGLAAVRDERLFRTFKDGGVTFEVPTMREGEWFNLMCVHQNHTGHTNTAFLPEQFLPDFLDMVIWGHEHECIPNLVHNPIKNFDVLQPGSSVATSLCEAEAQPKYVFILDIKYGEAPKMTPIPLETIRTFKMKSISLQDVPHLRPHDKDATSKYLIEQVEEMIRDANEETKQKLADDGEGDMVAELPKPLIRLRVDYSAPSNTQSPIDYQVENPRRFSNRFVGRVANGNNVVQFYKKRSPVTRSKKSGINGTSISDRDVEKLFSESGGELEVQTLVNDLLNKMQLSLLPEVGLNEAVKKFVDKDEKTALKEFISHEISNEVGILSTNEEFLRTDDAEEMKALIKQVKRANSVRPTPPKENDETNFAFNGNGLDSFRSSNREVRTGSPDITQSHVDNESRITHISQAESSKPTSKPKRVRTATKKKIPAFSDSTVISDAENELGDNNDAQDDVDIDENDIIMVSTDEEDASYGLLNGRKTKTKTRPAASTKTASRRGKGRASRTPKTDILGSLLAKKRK

[4] = target: T2, Mre11^T188I (LexA-Mre11^T188I) (S. cerevisiae, UniProt P32829 1-692, T188I)
T2 sequence (looked up): T1 sequence (looked up) with S84P, T188I

[5] = target: T3, Mre11^D16A (LexA-Mre11^D16A) (S. cerevisiae, UniProt P32829 1-692, D16A)
T3 sequence (looked up): T1 sequence (looked up) with D16A, S84P

[6] = target: T4, S. cerevisiae Mre11 (LexA-Mre11) (S. cerevisiae, UniProt P32829 1-692)
T4 sequence (looked up): T1 sequence (looked up) with S84P

[7] = target: T5, Mre11^I158R (LexA-Mre11^I158R) (S. cerevisiae, UniProt P32829 1-692, I158R)
T5 sequence (looked up): T1 sequence (looked up) with S84P, I158R

[8] = target: T4, S. cerevisiae Mre11 (LexA-Mre11); remark: listed apart in the source
[9] = target: T5, Mre11^I158R (LexA-Mre11^I158R); remark: listed apart in the source

Molecule	two-hybrid β-galactosidase activity (β-galactosidase units) [1]	two-hybrid β-galactosidase activity (β-galactosidase units) [2]	two-hybrid β-galactosidase activity [3]	two-hybrid β-galactosidase activity [4]	two-hybrid β-galactosidase activity [5]	two-hybrid β-galactosidase activity [6]	two-hybrid β-galactosidase activity [7]	two-hybrid β-galactosidase activity [8]	two-hybrid β-galactosidase activity [9]
Smt3 (Gal4AD-Smt3) (from UniProt Q12306 1-101) (natural protein)	71.9	38.8							
Smt3-allR (Gal4AD-Smt3^allR) (from UniProt Q12306 1-101) (natural protein)	21.8	5.4							
B1			51.7 ± 3.1 β-galactosidase units	60.1 ± 3.6 β-galactosidase units					
B2			162 ± 6.4 β-galactosidase units	153 ± 4.7 β-galactosidase units	76.2 ± 7 β-galactosidase units	188 ± 8.5 β-galactosidase units	37.9 ± 4 β-galactosidase units	125 ± 9.5 β-galactosidase units	35.1 ± 1 β-galactosidase units
